Drawing on PMC3988563 (2014), this text covers koff for one molecule.

For this assay, the target named is Ribosome termination complex (70S ribosomes, fMet-STOP mRNA and fMet-tRNA^fMet) (E. coli). As to the kind of experiment: with RF3:GDP.

B1: Fluorescein-labeled GAQ-RF1 (single-cysteine L82C or A220C) (natural protein)
chain: MKPSIVAKLEALHERHEEVQALLGDAQTIADQERFRALSREYAQLSDVSRSFTDWQQVQEDIETAQMMLDDPEMREMAQDELREAKEKSEQLEQQLQVLLLPKDPDDERNAFLEVRAGTGGDEAALFAGDLFRMYSRYAEARRWRVEIMSASEGEHGGYKEIIAKISGDGVYGRLKFESGGHRVQRVPATESQGRIHTSASTVAVMPELPDAELPDINPCDLRIDTFRSSGAGAQHVNTTDSAIRITHLPTGIVVESQDERSQHKNKAKALSVLGARIHAAEMAKRQQAEASTRRNLLGSGDRSDRNRTYNFPQGRVTDHRINLTLYRLDEVMEGKLDMLIEPIIQEHQADQLAALSEQE
modifications: fluorescein (fluorescein-maleimide) on the introduced cysteine
As usually defined, the koff is the first-order rate constant of dissociation. Regarding B1, the koff turned out to be 0.08 s⁻¹.
